Source: US20260242735A1

Experiments:
human CD33 D107A (human) = human CD33 D107A (human) (UniProt P20138); assay: alanine scan, flow cytometry, HEK293-T
human CD33 H143A (human) = human CD33 H143A (human) (UniProt P20138); assay: alanine scan, flow cytometry, HEK293-T
human CD33 I147A (human) = human CD33 I147A (human) (UniProt P20138); assay: alanine scan, flow cytometry, HEK293-T
human CD33 I66A (human) = human CD33 I66A (human) (UniProt P20138); assay: alanine scan, flow cytometry, HEK293-T
human CD33 K130A (human) = human CD33 K130A (human) (UniProt P20138); assay: alanine scan, flow cytometry, HEK293-T
human CD33 K146A (human) = human CD33 K146A (human) (UniProt P20138); assay: alanine scan, flow cytometry, HEK293-T
human CD33 K146A (human), sequence (P20138 18-364 K146A limits assumed): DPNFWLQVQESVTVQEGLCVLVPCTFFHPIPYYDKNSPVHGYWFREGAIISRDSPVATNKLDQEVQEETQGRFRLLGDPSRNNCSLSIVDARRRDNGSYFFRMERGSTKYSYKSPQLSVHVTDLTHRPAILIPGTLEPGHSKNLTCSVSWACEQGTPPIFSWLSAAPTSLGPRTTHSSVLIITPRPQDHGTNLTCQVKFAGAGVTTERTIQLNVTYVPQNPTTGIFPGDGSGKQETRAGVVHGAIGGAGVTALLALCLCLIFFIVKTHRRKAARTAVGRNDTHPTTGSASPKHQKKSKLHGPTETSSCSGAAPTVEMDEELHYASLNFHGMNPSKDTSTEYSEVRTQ

human CD33 K52A (human) = human CD33 K52A (human) (UniProt P20138); assay: alanine scan, flow cytometry, HEK293-T
human CD33 L141A (human) = human CD33 L141A (human) (UniProt P20138); assay: alanine scan, flow cytometry, HEK293-T
human CD33 L141A (human), sequence (P20138 18-364 L141A limits assumed): as the sequence (P20138 18-364 K146A limits assumed) above, with L124A, A129K counted along it

human CD33 L148A (human) = human CD33 L148A (human) (UniProt P20138); assay: alanine scan, flow cytometry, HEK293-T
human CD33 L92A (human) = human CD33 L92A (human) (UniProt P20138); assay: alanine scan, flow cytometry, HEK293-T
human CD33 L92A (human), sequence (P20138 18-364 L92A limits assumed): as the sequence (P20138 18-364 K146A limits assumed) above, with L75A, A129K counted along it

human CD33 M120A (human) = human CD33 M120A (human) (UniProt P20138); assay: alanine scan, flow cytometry, HEK293-T
human CD33 P175A (human) = human CD33 P175A (human) (UniProt P20138); assay: alanine scan, flow cytometry, HEK293-T
human CD33 P184A (human) = human CD33 P184A (human) (UniProt P20138); assay: alanine scan, flow cytometry, HEK293-T
human CD33 S181A (human) = human CD33 S181A (human) (UniProt P20138); assay: alanine scan, flow cytometry, HEK293-T
human CD33 S181A (human), sequence (P20138 18-364 S181A limits assumed): as the sequence (P20138 18-364 K146A limits assumed) above, with A129K, S164A counted along it

human CD33 T152A (human) = human CD33 T152A (human) (UniProt P20138); assay: alanine scan, flow cytometry, HEK293-T
human CD33 T152A (human), sequence (P20138 18-364 T152A limits assumed): as the sequence (P20138 18-364 K146A limits assumed) above, with A129K, T135A counted along it

human CD33 V138A (human) = human CD33 V138A (human) (UniProt P20138); assay: alanine scan, flow cytometry, HEK293-T
human CD33 V138A (human), sequence (P20138 18-364 V138A limits assumed): as the sequence (P20138 18-364 K146A limits assumed) above, with V121A, A129K counted along it

human CD33 V82A (human) = human CD33 V82A (human) (UniProt P20138); assay: alanine scan, flow cytometry, HEK293-T
human CD33 F44D (human) = human CD33 F44D (human) (UniProt P20138); assay: flow cytometry on transfected cells, IgG
human CD33 F44D (human), sequence (P20138 18-364 F44D limits assumed): as the sequence (P20138 18-364 K146A limits assumed) above, with F27D, A129K counted along it

human CD33 F44E (human) = human CD33 F44E (human) (UniProt P20138); assay: flow cytometry on transfected cells, IgG
human CD33 F44Q (human) = human CD33 F44Q (human) (UniProt P20138); assay: flow cytometry on transfected cells, IgG
human CD33 F44T (human) = human CD33 F44T (human) (UniProt P20138); assay: flow cytometry on transfected cells, IgG
human CD33 F44V (human) = human CD33 F44V (human) (UniProt P20138); assay: flow cytometry on transfected cells, IgG
human CD33 I47F (human) = human CD33 I47F (human) (UniProt P20138); assay: flow cytometry on transfected cells, IgG
human CD33 I47L (human) = human CD33 I47L (human) (UniProt P20138); assay: flow cytometry on transfected cells, IgG
human CD33 I47P (human) = human CD33 I47P (human) (UniProt P20138); assay: flow cytometry on transfected cells, IgG
human CD33 I47R (human) = human CD33 I47R (human) (UniProt P20138); assay: flow cytometry on transfected cells, IgG
human CD33 I47R (human), sequence (P20138 18-364 I47R limits assumed): as the sequence (P20138 18-364 K146A limits assumed) above, with I30R, A129K counted along it

human CD33 I47S (human) = human CD33 I47S (human) (UniProt P20138); assay: flow cytometry on transfected cells, IgG
human CD33 P46D (human) = human CD33 P46D (human) (UniProt P20138); assay: flow cytometry on transfected cells, IgG
human CD33 P46H (human) = human CD33 P46H (human) (UniProt P20138); assay: flow cytometry on transfected cells, IgG
human CD33 P46L (human) = human CD33 P46L (human) (UniProt P20138); assay: flow cytometry on transfected cells, IgG
human CD33 P48H (human) = human CD33 P48H (human) (UniProt P20138); assay: flow cytometry on transfected cells, IgG
human CD33 P48I (human) = human CD33 P48I (human) (UniProt P20138); assay: flow cytometry on transfected cells, IgG
human CD33 P48M (human) = human CD33 P48M (human) (UniProt P20138); assay: flow cytometry on transfected cells, IgG
human CD33 P48M (human), sequence (P20138 18-364 P48M limits assumed): as the sequence (P20138 18-364 K146A limits assumed) above, with P31M, A129K counted along it

human CD33 P48N (human) = human CD33 P48N (human) (UniProt P20138); assay: flow cytometry on transfected cells, IgG
human CD33 P48Q (human) = human CD33 P48Q (human) (UniProt P20138); assay: flow cytometry on transfected cells, IgG
human CD33 P48Q (human), sequence (P20138 18-364 P48Q limits assumed): as the sequence (P20138 18-364 K146A limits assumed) above, with P31Q, A129K counted along it

human CD33 P48S (human) = human CD33 P48S (human) (UniProt P20138); assay: flow cytometry on transfected cells, IgG
human CD33 P48Y (human) = human CD33 P48Y (human) (UniProt P20138); assay: flow cytometry on transfected cells, IgG
human CD33 P48Y (human), sequence (P20138 18-364 P48Y limits assumed): as the sequence (P20138 18-364 K146A limits assumed) above, with P31Y, A129K counted along it

human CD33 T42K (human) = human CD33 T42K (human) (UniProt P20138); assay: flow cytometry on transfected cells, IgG
human CD33 Y49C (human) = human CD33 Y49C (human) (UniProt P20138); assay: flow cytometry on transfected cells, IgG
human CD33 Y49C (human), sequence (P20138 18-364 Y49C limits assumed): as the sequence (P20138 18-364 K146A limits assumed) above, with Y32C, A129K counted along it

human CD33 Y49G (human) = human CD33 Y49G (human) (UniProt P20138); assay: flow cytometry on transfected cells, IgG
human CD33 Y49R (human) = human CD33 Y49R (human) (UniProt P20138); assay: flow cytometry on transfected cells, IgG
human CD33 Y50D (human) = human CD33 Y50D (human) (UniProt P20138); assay: flow cytometry on transfected cells, IgG
human CD33 Y50G (human) = human CD33 Y50G (human) (UniProt P20138); assay: flow cytometry on transfected cells, IgG
human CD33 Y50H (human) = human CD33 Y50H (human) (UniProt P20138); assay: flow cytometry on transfected cells, IgG
human CD33 Y50H (human), sequence (P20138 18-364 Y50H limits assumed): as the sequence (P20138 18-364 K146A limits assumed) above, with Y33H, A129K counted along it

human CD33 Y50L (human) = human CD33 Y50L (human) (UniProt P20138); assay: flow cytometry on transfected cells, IgG
human CD33 Y50V (human) = human CD33 Y50V (human) (UniProt P20138); assay: flow cytometry on transfected cells, IgG

human CD33 I66A (human), sequence (P20138 18-364 I66A limits assumed): as the sequence (P20138 18-364 K146A limits assumed) above, with I49A, A129K counted along it

## Refmab #7 (WM53) (antibody)
Human CD33 D107A (human)
  Mean % WT Binding: 113 % WT binding
Human CD33 H143A (human)
  Mean % WT Binding: 112 % WT binding
Human CD33 I147A (human)
  Mean % WT Binding: 92 % WT binding
Human CD33 I66A (human)
  Mean % WT Binding: 117 % WT binding
Human CD33 K130A (human)
  Mean % WT Binding: 148 % WT binding
Human CD33 K146A (human)
  Mean % WT Binding: 91.1 % WT binding
Human CD33 K52A (human)
  Mean % WT Binding: 76.8 % WT binding
Human CD33 L141A (human)
  Mean % WT Binding: 118 % WT binding
Human CD33 L148A (human)
  Mean % WT Binding: 96.7 % WT binding
Human CD33 L92A (human)
  Mean % WT Binding: 89.9 % WT binding
Human CD33 M120A (human)
  Mean % WT Binding: 92 % WT binding
Human CD33 P175A (human)
  Mean % WT Binding: 126 % WT binding
Human CD33 P184A (human)
  Mean % WT Binding: 106 % WT binding
Human CD33 S181A (human)
  Mean % WT Binding: 86.7 % WT binding
Human CD33 T152A (human)
  Mean % WT Binding: 102 % WT binding
Human CD33 V138A (human)
  Mean % WT Binding: 91 % WT binding
Human CD33 V82A (human)
  Mean % WT Binding: 108 % WT binding
Human CD33 F44D (human)
  Mean % WT Binding: 9.5 % WT binding
Human CD33 F44E (human)
  Mean % WT Binding: 18.3 % WT binding
Human CD33 F44Q (human)
  Mean % WT Binding: 74.8 % WT binding
Human CD33 F44T (human)
  Mean % WT Binding: 31.7 % WT binding
Human CD33 F44V (human)
  Mean % WT Binding: 36.1 % WT binding
Human CD33 I47F (human)
  Mean % WT Binding: 85.2 % WT binding
Human CD33 I47L (human)
  Mean % WT Binding: 37.4 % WT binding
Human CD33 I47P (human)
  Mean % WT Binding: 1.2 % WT binding
Human CD33 I47R (human)
  Mean % WT Binding: 2 % WT binding
Human CD33 I47S (human)
  Mean % WT Binding: 33.6 % WT binding
Human CD33 P46D (human)
  Mean % WT Binding: 15.9 % WT binding
Human CD33 P46H (human)
  Mean % WT Binding: 94.3 % WT binding
Human CD33 P46L (human)
  Mean % WT Binding: 66.8 % WT binding
Human CD33 P48H (human)
  Mean % WT Binding: 1.6 % WT binding
Human CD33 P48I (human)
  Mean % WT Binding: 0.1 % WT binding
Human CD33 P48M (human)
  Mean % WT Binding: 3.2 % WT binding
Human CD33 P48N (human)
  Mean % WT Binding: 4.3 % WT binding
Human CD33 P48Q (human)
  Mean % WT Binding: 1.3 % WT binding
Human CD33 P48S (human)
  Mean % WT Binding: 2.6 % WT binding
Human CD33 P48Y (human)
  Mean % WT Binding: 0.5 % WT binding
Human CD33 T42K (human)
  Mean % WT Binding: 77 % WT binding
Human CD33 Y49C (human)
  Mean % WT Binding: 0.6 % WT binding
Human CD33 Y49G (human)
  Mean % WT Binding: 20.5 % WT binding
Human CD33 Y49R (human)
  Mean % WT Binding: 1.6 % WT binding
Human CD33 Y50D (human)
  Mean % WT Binding: 1.2 % WT binding
Human CD33 Y50G (human)
  Mean % WT Binding: 17.2 % WT binding
Human CD33 Y50H (human)
  Mean % WT Binding: 18 % WT binding
Human CD33 Y50L (human)
  Mean % WT Binding: 4.7 % WT binding
Human CD33 Y50V (human)
  Mean % WT Binding: 3.9 % WT binding
